Data: US20200031807

Target: GST-histone H3 [GST: P08515]
Sequence (P08515 whole entry, looked up): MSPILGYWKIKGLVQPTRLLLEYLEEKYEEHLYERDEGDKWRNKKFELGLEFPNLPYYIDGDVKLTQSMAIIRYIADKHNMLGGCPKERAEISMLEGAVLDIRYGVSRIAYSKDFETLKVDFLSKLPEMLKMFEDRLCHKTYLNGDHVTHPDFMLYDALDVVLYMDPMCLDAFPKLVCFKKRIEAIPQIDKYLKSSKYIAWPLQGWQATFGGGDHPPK

B1: Flag-tagged AURKB protein (protein)
chain: MAQKENSYPWPYGRQTAPSGLSTLPQRVLRKEPVTPSALVLMSRSNVQPTAAPGQKVMENSSGTPDILTRRHFTIDDFEIGRPLGKGKFGNVYLAREKKSHFIVALKVLFKSQIEKEGVEHQLRREIEIQAHLHHPNILRLYNYFYDRRRIYLILEYAPRGELYKELQKSCTFDEQRTATIMEELADALMYCHGKKVIHRDIKPENLLLGLKGELKIADFGWSVHAPSLRRKTMCGTLDYLPPEMIEGRMHNEKVDLWCIGVLCYELLVGNPPFESASHNETYRRIVKVDLKFPASVPMGAQDLISKLLRHNPSERLPLAQVSAHPWVRANSRRVLPPSALQSVA
For B1, the “in vitro phosphorylation, read by western blot” value was “the Flag-AURKB protein had kinase activity and can phosphorylate histone H3”.
